Measured values published in patent US7919262B2, “14-3-3 proteins for diagnosis of Parkinson's disease” (The UAB Research Foundation, priority 2007, dated 2011).

Legend:
[1] = tested on: H4 cells; test: α-syn toxicity assay, adenylate kinase released into the media; type: cell-based; details: co-transfected with wildtype α-syn; 24 hours after transfection; vs empty vector
Description: Briefly, H4 cells were transfected with wildtype α-syn and each of the 14-3-3 polypeptide isoforms or empty vector controls as discussed above. Twenty-four hours after transfection, cell death was assayed by adenylate kinase activity in the media (n=4, *p<0.05, **p<0.01, ***p<0.001).
Primers against each of the human 14-3-3 isoforms were designed using Primer3. Primers against 14-3-3β (NM_018753) were 5′ […] 3′ (forward; SEQ ID NO. 9) and 5′ […] 3′ (reverse; SEQ ID NO. 10). Primers against 14-3-3ε (NM_009536) were 5′ […] 3′ (forward; SEQ ID NO. 11) and 5′ […] 3′ (reverse; SEQ ID NO. 12). Primers against 14-3-3γ (NM_018871) were 5′ […] 3′ (forward; SEQ ID NO. 13) and 5′ […] 3′ (reverse; SEQ ID NO. 14). Primers against 14-3-3η (NM_011738) were 5′ […] 3′ (forward; SEQ ID NO. 15) and 5′ […] 3′ (reverse; SEQ ID NO. 16). Primers against 14-3-3θ (NM_011739) were 5′ […] 3′ (forward; SEQ ID NO. 17) and 5′ […] 3′ (reverse; SEQ ID NO. 18). Primers against 14-3-3σ (NM_018754) were 5′ […] 3′ (forward; SEQ ID NO. 19) and 5′ […] 3′ (reverse; SEQ ID NO. 20). Primers against 14-3-3ζ(NM_011740) were 5′ […] 3′ (forward; SEQ ID NO. 21) and 5′ […] 3′ (reverse; SEQ ID NO. 22). Primers against GAPDH were 5′ tggtgaagcaggeatctga 3′ (forward; SEQ ID NO. 23) and 5′ […] […] All cells stained for α-syn were scored as positive or negative for α-syn aggregates, with the rater blind to experimental condition. • α-syn toxicity assay H4 cells were transfected with α-syn and either empty vector control or a 14-3-3 isoform using Superfect transfection reagent (Qiagen). 24 hours after transfection, toxicity was measured by the amount of adenylate kinase released into the media using the ToxiLight™ kit (Cambrex). • Creation of stable cell lines Each 14-3-3 isoform was subcloned into the mammalian expression vector mcDNA3.1/V5-His (Invitrogen). […] Protein concentrations of supernatants were determined by the bicinchoninic acid assay (BCA; Pierce, Rockford, Ill.). […]

[2] = tested on: naïve M17 cells; test: Rotenone toxicity after transient transfection, scoring of apoptotic nuclei; type: cell-based, human; details: rotenone 0, 0.2 or 1 μM for 24 hours, vs control transfection
Description: FIGS. 6A-D show M17 cells overexpressing 14-3-3θ are resistant to rotenone treatment. Cell lines stably-transfected with either 14-3-3θ or empty vector were treated with varying concentrations of rotenone (0-25 μM) for 24 hours (FIG. 6A), 30 hours (FIG. 6B), or 48 hours (FIG. 6C). Cell death was assayed by LDH release into the culture media. LDH release into media was normalized to total LDH release for each well. The 14-3-3θ-overexpressing line was more resistant to rotenone in a dose-dependent manner compared to control stable cells at all time points tested. […] Rater was blind to experimental condition. n=8 for each experimental condition. *p<0.05, ***p<0.001 (Bonferroni's multiple comparison test).
The effects of 14-3-3θ overexpression on rotenone toxicity was also examined by transient transfection of this isoform into naïve M17 cells. Briefly, M17 cells were transfected with V5-tagged 14-3-3θ isoform or enhanced yellow fluorescent protein (EYFP) (control) and were treated with rotenone for 24 hours at 0, 0.2, or 1 μM rotenone. Because of the relatively low rates of transfection, after the treatment period cells were fixed and stained against V5 (or GFP in the case of control), followed by Hoechsht 33342 staining. With the rater blind to experimental condition, the nuclei of cells that stained for V5 or GFP were scored as normal or apoptotic.

[3] = tested on: Transgenic C. elegans worms that overexpress human wildtype α-syn; test: Dopaminergic neuron loss in α-syn transgenic worm model; type: in vivo; details: human 14-3-3θ overexpressed along with α-syn
Source text: FIG. 10. Overexpression of 14-3-3θ protects against dopaminergic cell loss in the α-syn transgenic C. elegans worm model. Double transgenic worms were created in which the 14-3-3θ isoform was overexpressed along with α-syn.
We turned to the C. elegans model of PD, in which human wildtype α-syn is overexpressed. […] Double transgenic worms were created in which the 14-3-3θ isoform was overexpressed along with α-syn. […] In contrast, 18.9% of worms that overexpressed human 14-3-3θ along with α-syn had all six dopaminergic neurons at seven days (FIG. 10; p<0.001 compared to α-syn worms). 12.9% of worms had the full anterior complement of dopaminergic neurons at 10 days (FIG. 10; p<0.00001).

| Molecule | effect on α-syn dependent cell death (adenylate kinase activity in the media) [1] | cell death (apoptotic nuclei) in response to rotenone treatment [2] | worms with the full anterior complement of dopaminergic neurons ([3]; 10 days) [%] | worms with all six anterior dopaminergic neurons present ([3]; seven days) [%] |
| --- | --- | --- | --- | --- |
| 14-3-3θ: 14-3-3 polypeptide θ isoform, overexpressed from V5/His-tagged pcDNA3.1 vector (or as transgene in C. elegans) (protein, UniProt P27348 1-245, looked up, V5/His tag) 14-3-3 protein theta: MEKTELIQKAKLAEQAERYDDMATCMKAVTEQGAELSNEERNLLSVAYKNVVGGRRSAWRVISSIEQKTDTSDKKLQLIKDYREKVESELRSICTTVLELLDKYLIANATNPESKVFYLKMKGDYFRYLAEVACGDDRKQTIDNSQGAYQEAFDISKKEMQPTHPIRLGLALNFSVFYYEILNNPELACTLAKTAFDEAIAELDTLNEDSYKDSTLIMQLLRDNLTLWTSDSAGEECDAAEGAEN | protective effects | decreased cell death | 12.9 | 18.9 |
| 14-3-3ζ: 14-3-3 polypeptide ζ isoform, overexpressed from expression vector (protein, UniProt P63104 1-245, looked up) 14-3-3 protein zeta/delta: MDKNELVQKAKLAEQAERYDDMAACMKSVTEQGAELSNEERNLLSVAYKNVVGARRSSWRVVSSIEQKTEGAEKKQQMAREYREKIETELRDICNDVLSLLEKFLIPNASQAESKVFYLKMKGDYYRYLAEVAAGDDKKGIVDQSQQAYQEAFEISKKEMQPTHPIRLGLALNFSVFYYEILNSPEKACSLAKTAFDEAIAELDTLSEESYKDSTLIMQLLRDNLTLWTSDTQGDEAEAGEGGEN | protective effects | – | – | – |
